Test results: a protein production outcome set (Wang et al. 2014)

Assay: label from the status in PepcDB records

In the case of “MKTAWLLLLLLGVGALGGCAVNPATGKSDFVMMSEQQELGMGARYNQEILKQFPRYNDEKLQAYVQRVGERVARSSHRSNLQYHFTVIDSPDINAFALPGGYIYIHRGLIAYLGSEAELAAVLGHEVGHVTARHSVRQQSQASAWNILGQAVAIGTGVGAAGDLANVLGTAFVRGYGRDMELEADGLGAQYLARAGYDPTAMIQVVRVLKNQEDFAREEAARNGQAVQAGGYHGLFDTHPDNDRRLQEVVGPARQLANGQQEVGREVFLRHLEGMPFGDSASAGVRRGQNFYHAELDFTLSYPAGWKILNQPSALLGYPADEQSFIGMKLVPHDSRLTPAEFLRKNAGQRLAQEESLKQAGLNGYTAVVPGNPARRVAVIYQGDRAYLFVGVVKVGSLETQDDRFLSVIRSFRPLRDKERALAQPRRLHLVQVKAGQTLEQLAAGGEGSLSDSVARLRLLNDLYPSGEPRPGDWLKVVR”, the protein production is reported as “failed”.

With “MKTFKKGVILDAKSVGLKALEVLKEVADFDFYEVTPPSQIVERSIEAEIMVLNKVVITQEVLSQLPKLKLICITATGTDNVDIKSAKALGIEVKNVSAYSTESVAQHTLACALSLLGRINDYDRYCKSGEYSQSDLFTHISDIKMGLIKGSQWGVIGLGTIGKRVAKLAQAFGAKVVYYSPKDKKEEYERLSLKDLLATSDIISIHAPLNESTRDLIALKELQSLKDGAILINVGRGGIVNEKDLAEILETKDLYYASDVFVKEPFEKDHAFLNPKIQNKLLLTPHIAWAYSDSLKTLVEKTKENIQDFLASQK” the protein production was “failed”.

For “MKTGKELKPGTVLRIDNDPWLVQKAEFTKSGRNSAIMKTKLKNLLTGYKTETVYGADDKLDDVILDRKEATLSFINGDEYTFMDTTDYTMYELNAEDIEAVLPYIEEGMEDVCEAVFFEGRLVSVELPTTISRKVVYTENAARGDTSGKVMKPAKLANGTEISVADFIQIDEWIDIDTRDNSFKGRSKKLEHHHHHH”, the protein production was “not failed”.

With “MKTIKDWQINICLATYNGQKYLRQQLDSIIQQGYTDWICLIRDDGSTDDTVAIIKEYVNRDSRFIFINSNDDRKLGSHRSFYELVNYKKADFYVFSDQDDVWKENRLERYLEEAEKFNQELPLLVYSNWTSVDEKLTVLKEHNPATVIQEQIAFNQINGMVIMMNHELAKLWEYRQIGAHDSYVGTLAYAVGNVAYISDSTVLWRRQVGAESLNNYGRQYGVATFWQMINTSFDRASLIFAQVSDKMSLERKLFFSRFIELKNANLMRRIYLLSKLKLRRKSLKETVAMTILLLTGYGKPKALEHHHHHH” the protein production was “not failed”.

For “MKTITQELKQYMTHLFQLSNNEAWECEALEEAAENILPERFINDSPLVQLTLETYTYYNDELHELSIYPFLMYANNQLISIGYLDHFDMDFLYLTDTQNIIIDERHLLKQGGQDHELEHHHHHH”, the protein production was “not failed”.

In the case of “MKTIVIEDKQRIESIILQADACFVGITDLEGNPYVVPMNFGYENDTLYLHSGPEGGKIEMLQRNNNVCITFSLGHKLVYQHKQVACSYSMRSESAMCRGKVEFIEDMEEKRHALDIIMRHYTKDQFSYSDPAVRNVKVWKVPVDQMTGKVFGLRADEKP”, the protein production is reported as “not failed”.

In the case of “MKTKIAYEEVAGMLNQWYVMIKRHEVSQAVSIKCDIEHQLPNMEENQDLLLYFNLLDYRHKLLTEEFAASNKLFEDIQEQKADMQSTDDMIEYYYFFFAGMYEFHKKDYTNAINYYKLAEEKLRTIPDQIEIAEFHYKLAIAYYQIKQNFLSLNHAKTALKTFKAHDDYIQKAISNDMLIGANKLDLFRFDEAEQHYKQALKDAALIKHHVLLGMAHHNLGLSYVNRNLLTLAEHHFKEALLIKEHEESVYGIHSMFELTHVLYKSNVVKEARKLYEKGFFRAEKAGEREYLSKFKLIHALYDEQDPLTVEHALEYLKTINLWTDVAELTFDIALYYKENGDADKAAEYFEESHHARDQILKRTEELK”, the protein production is reported as “failed”.

In the case of “MKTKQTDELLAKDEQYVWHGMRPFSPNSTMVGAKAEGCWVEDIQGKRYLDGMSGLWCVNSGYGRKELAEAAYKQLQTLSYFPMSQSHEPAIKLAEKLNEWLGGEYVIFFSNSGSEANETAFKIARQYYAQKGEPHRYKFMSRYRGYHGNTMATMAATGQAQRRYQYEPFASGFLHVTPPDCYRMPGIERENIYDVECVKEVDRVMTWELSETIAAFIMEPIITGGGILMPPQDYMKAVHETCQKHGALLISDEVICGFGRTGKAFGFMNYDVKPDIITMAKGITSAYLPLSATAVKREIYEAFKGKGEYEFFRHINTFGGNPAACALALKNLEIIENENLIERSAQMGSLLLEQLKEEIGEHPLVGDIRGKGLLVGIELVNDKETKEPIDNDKIASVVNACKEKGLIIGRNGMTTAGYNNILTLAPPLVISSEEIAFVIGTLKTAMERI”, the protein production is reported as “failed”.

In the case of “MKTLDFRRAGAHIALVVLFAVCPVAFADENDEVAKLYQQGNLDKALEQANAYLALKPKDPQMRFHKGLILTEQQKIPDAIKVFSSLSEDYPNLPEPYNNLAVLYASQGLYEKARGALEAAIRTHPSYSIAHENLGDIYAKLASEAYGKALQLDQGNAAAQTKLAMIKDLFIGKSGAIKTASAATAPAPPASAAPRSPAATTPSPPRSAAPATPPASVHPAPGKAPQKSAEKKTEKAEKSAPGKIAAVETHSPEKKTDVPDESDEIIKTVNAWARAWSDKNVTAYFAFYAADFQTPRGVKRTTWEKTRRDRIIKPKAIQVEITHPKVTLINPARARVSFRQLYHSDAFKHDSSKTLEMVKTDGKWQIRQERSAK”, the protein production is reported as “failed”.

With “MKTLGNILWFIFGGFFGGLSWLFAGVIWCITIIGIPIGLQCFKLAGLSFWPFKKRVVYSDSGVSLVVNIIWLIISGLPLAIGHCISGLFLCLTIIGIPFGQQSFKLAKLALMPFGARVVSTNDFYFE” the protein production was “failed”.

With “MKTNSEELTVFVQVVESGSFSRAAEQLAMANSAVSRIVKRLEEKLGVNLLNRTTRQLSLTEEGAQYFRRAQRILQEMAAAETEMLAVHEIPQGVLSVDSAMPMVLHLLAPLAAKFNERYPHIRLSLVSSEGYINLIERKVDIALRAGELDDSGLRARHLFDSRFRVIASPEYLAKHGTPQSTEELAGHQCLGFTEPGSLNTWAVLDAQGNPYKISPHFTASSGEILRSLCLSGCGIVCLSDFLVDNDIAEGKLIPLLAEQTSDKTHPFNAVYYSDKAVNLRLRVFLDFLVEELGNNLCG” the protein production was “failed”.

For “MKTQITTRDLVLEFIHALNTENFPAAKKRLNENFTFNGPMGHREGSERYMNDMEKMKFKYVVHKMFEEGNDVCLIYDINMNGKTIAASGLYHLEKGEITSLHVYFDPRPLFEE”, the protein production was “not failed”.

For “MKTREYYVAAAAGLIGGNVSSFVKWGTEIPFPPRTPDRPIPPLEMLDSLGINANQLTYVYSEHMVNYGSALIHQSFSIFFAIFYCLTALRYPRVAVWQGFGFGMLVTLAFHGVLLPMFHWAPPLWELPPAEWASETFGHLLWIWVIEVIRRDLQQRWSPGPG”, the protein production was “failed”.

With “MKTVILIGALGKMGQAALTGLSKHKVITAGRSGNVDHLVDITNENSIRALYEKVGHFDAVVNTVGFCEYATFAEMTEAQWMTTVMSKMMGQINLVRIGQEYIADKGSFTLISGILNVKPIPCAIADATTSGAIDTFVKCVAYEMQRGTRINVVNPTVLTEAWDVYGDMMPGFEPVPSTLVGKAFERSVDGFINGEVLFVDALEHHHHHH” the protein production was “not failed”.

With “MKTVLLTGFDPFGGESINPAWEVAKSLHEKTIGEYKIISKQVPTVFHKSISVLKEYIEELAPEFIICIGQAGGRPDITIERVAINIDDARIADNEGNQPVDVPVVEEGPAAYWSTLPMKAIVKKLQEEGIPASVSQTAGTFVCNHLFYGLMHELEKHDTKMKGGFIHIPFLPEQASNYPGQPSMSLSTIRKGIELAVEVTTTVEVDIVEVGGTTH” the protein production was “not failed”.

For “MKTVPAMLGTPRLFREFFILHLGLWSILCEKATKRNDEECEVQLNIKRNSKHSAWTGELFKIECPVKYCVHRPNVTWCKHNGTIWVPLEVGPQLYTSWEENRSVPVFVLHFKPIHLSDNGSYSCSTNFNSQVINSHSVTIHVRERTQNSSEHPLITVSDIPDATNASGPSTMEERPGRTWLLYTLLPLGALLLLLACVCLLCFLKRIQGKEKKPSDLAGRDTNLVDIPASSRTNHQALPSGTGIYDNDPWSSMQDESELTISLQSERNNQGIVYASLNHCVIGRNPRQENNMQEAPTEYASICVRS”, the protein production was “not failed”.

For “MKTYSVIAVASLLATNLLTFPSSSLAEIENKTRNSIEAVSHMQSNEKSELQKQLEAAKEREMKLEKREEILKQQEELFIKIDDLKQKKEELLEQAGEHNVQIEEVYQELNELKKQQEELEEKNPLQVKSNDQEKKTNELKSQEELKEKDGVEVKENNGQEEKVHEEFEEQKKKEELKKQQDELRKQQEELKKQQLELEQRIKQELERKQQEEQAKQELELKQKEEQAKRELELKQKEEQVKQELELKQKEEQVKQELELKQKEEQVKQELELKQKEEQEKQELELKQKEEQEKQELELKQKEEQKKQELELKQKEEQEKGERELKQAVSSIQAAPQSFPDVPGWAQESVYYLVHKKVISGMPDGTFSPSKVLSRAEAATIMAKILELEVSEGEKPTFTDSQDHWATPYIAAVEKAGVIKGEGNGKFNPNGQMTRAAMATMLVQAYQLEKKVHEELPTLFPDVKDHWGEKFINILVGMGISSGVDGGRWQPDRSITRAEAAQLVAVTDKSKDNELKMKKVSISKKFFTYNGPSLSSGISKEYGPREVTVYEERDGGWIRIHTDTGFKWVCLVEKKVNMNKNFLTYNEASLSSGISGEYAPQIVTVIEEREGNWIKVYTDLGYKWVCLIDKKVQIDRDFTTYDAPFRSANILDYYGPQAVTVVEERGTWLRIRTYAGYQWLDTKKEAKYLSKVFFAYDSPSFVSRVSGKYAPQTVEVYGEREGGWIQIQTSNGLKWVNEGNINRSQVILNVPSLYQFPELHNGCEVVSLQMLVEHQIGRSLNKVAFAFEMPFDQAKLKNYKTSSQIWGDPDVGFVGDVTGNTPGYSINPEPLKRLLDKYSRGTNLTGNDLSVLEDYVRNGKPVVTWVTVALNNPRAVTTWKTPGGKIIYARMNTHAVVLTGVDDNYVYYNDPFYGTKNVKVSKSRFASIYNQMGKKALSVD”, the protein production was “failed”.

With “MKTYTSVIFWMRTIACLSIVLIHSITTTFSKMDFLGHGTAIRVFQLMLMFSTPLFVFISEFLLAKNYQVKTKPGFFKNKLIYLGIPYIIINIGIALFYFESKTFDQFMTHLGDTMFHGGAVTYFIVIIFQFYILHILFAKYLIKWKPVPVIIGAVIFATIYWAFRQYAPQSEHPILGLFWEREGWMLFLGWISYFLLGFYTGIYYETFMKKIKKYTWPIIIGAIIATSILVDNYLFGISTWVESKRFDIPFYVKMVILVFFLFASYVKYVPKFILFISNYSFCIYLIHYFFVHELGLLRAASSLRNIAFNFIITLTVSICLAYIFNLSKYGKFIVGGIGHIKYDKVYESYKHGKMD” the protein production was “failed”.

For “MKVAILGAGCYRTHAASGITNFSRASQVAKEAGIPEIAMTHSTITMGAELLHLIPEITEVVVSDPCFAEEPGMVVLDQFDYKAVMEAHLAGDAEKVMPEIREAVKAKAKETPKPPKGCIHFVHPETVGLKVTASDVEAVKDADIVITWLPKGGSQPAIIEKFASEIKKGAIVTHACTIPTPKFAKIFKDLGRDDLNIIAYHPGAVPEMKGQAFLSEGLADAEKVEEFYCMAKTARGEAFKMPANLISPVCDMGSAVTAPVYAAILAYRDAVTQILGAPADFAQMMADEAISQILDLMRNEGIKNMEDKLNPKALTGTADSMCFGPLADILPASLKVLEKHANENKCECGCSIKP”, the protein production was “failed”.

For “MKVALGGTFEPLHEGHKKLIDVAIKLGGRDITIGVTSDRMARARIRSVLPFAIRAENVKRYVMRKYGFEPEIVKITNPYGKTLDVDFEYLVVSPETYEMALKINQKREELGKRKITIVKVDWMMAEDGKPISSTRIKRGEIDRYGG”, the protein production was “failed”.

For “MKVEKGDVIRLHYTGKVKETGEIFDTTYEDVAKEARIYNPNGIYGPVPIAVGAGHVLPGLDKRLIGLEVKKKYVIEVPPEEGFGLRDPGKIKIIPLGKFRKSGIIPYPGLEIEVETENGRKMRGRVLTVSGGRVRVDFNHPLAGKTLVYEVEVVEKIEDPIEKIKALIELRLPMIDKDKVIIEISEKDVKLNFKDVDIDPKTLILGEILLESDLKFIGYEKVEFEPTIEELLKPKSAEEQESPNEEQQEESESKAEES”, the protein production was “failed”.
